Test results: IntAct's records for PubMed 29611543

B1: Triggering receptor expressed on myeloid cells 2 (Homo sapiens), Q9NZC2 (parent)
chain: MEPLRLLILLFVTELSGAHNTTVFQGVAGQSLQVSCPYDSMKHWGRRKAWCRQLGEKGPCQRVVSTHNLWLLSFLRRWNGSTAITDDTLGGTLTITLRNLQPHDAGLYQCQSLHGSEADTLRKVLVEVLADPLDHRDAGDLWFPGESESFEDAHVEHSISRSLLEGEIPFPPTSILLLLACIFLIKILAASALWAAAWHGQKPGTHPPSELDCGHDPGYQLQTLPGLRDT

Variants of: B1
Conditions: with psn1_human PSEN1, P49768

Effect of a mutation on the interaction, with no effect:
R47H
T66M
T96K
